According to PMC11832431 (MedComm, 2025):

Biological target: T1, His-DUB3 (deubiquitinating enzyme 3) (UniProt Q6R6M4 1-530)
T1 construct: deubiquitinating enzyme 3 (DUB3); also called purified recombinant His-DUB3; source: purified recombinant (cloned into PET28A)
T1 sequence (looked up): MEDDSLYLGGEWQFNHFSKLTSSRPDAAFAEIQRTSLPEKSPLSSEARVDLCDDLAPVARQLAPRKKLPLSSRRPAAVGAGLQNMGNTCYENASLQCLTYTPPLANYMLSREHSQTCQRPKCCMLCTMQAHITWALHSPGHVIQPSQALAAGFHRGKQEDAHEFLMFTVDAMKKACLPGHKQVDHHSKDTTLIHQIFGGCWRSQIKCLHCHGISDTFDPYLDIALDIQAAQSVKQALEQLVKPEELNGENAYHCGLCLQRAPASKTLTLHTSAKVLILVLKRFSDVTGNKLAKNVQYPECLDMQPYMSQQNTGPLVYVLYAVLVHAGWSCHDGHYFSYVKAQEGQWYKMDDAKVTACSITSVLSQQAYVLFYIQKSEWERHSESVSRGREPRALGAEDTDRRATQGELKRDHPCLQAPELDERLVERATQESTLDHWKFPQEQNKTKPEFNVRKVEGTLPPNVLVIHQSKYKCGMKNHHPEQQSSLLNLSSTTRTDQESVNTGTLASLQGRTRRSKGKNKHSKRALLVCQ
Assay: pull-down; purified recombinant GST or GST fusion protein incubated in vitro (cell-free) with purified recombinant His-tagged protein; blot and Coomassie blue staining
Conditions: both partners purified

binding result: binds
B1: GST-CDK4 (cyclin-dependent kinase 4) (enzyme, UniProt P11802 1-303, looked up)
chain: MATSRYEPVAEIGVGAYGTVYKARDPHSGHFVALKSVRVPNGGGGGGGLPISTVREVALLRRLEAFEHPNVVRLMDVCATSRTDREIKVTLVFEHVDQDLRTYLDKAPPPGLPAETIKDLMRQFLRGLDFLHANCIVHRDLKPENILVTSGGTVKLADFGLARIYSYQMALTPVVVTLWYRAPEVLLQSTYATPVDMWSVGCIFAEMFRRKPLFCGNSEADQLGKIFDLIGLPPEDDWPRDVSLPRGAFPPRGPRPVQSVVPEMEESGAQLLLEMLTFNPHKRISAFRALQHSYLHKDEGNPE
notes: cyclin-dependent kinase 4 (CDK4); CDK4 and CDK6 were cloned as separate genes, so they are written as two molecules; No cyclin is mentioned; also called GST-CDK4/6; source: purified recombinant (cloned into pGEX4T-1)
